From article doi:10.1101/2021.04.26.441214 (bioRxiv, 2021)

Experiments:
Test in all cases: cryo-EM structure
[1] = molecular target: T. maritima encapsulin shell protein (wild type) (T. maritima) (UniProt Q9WZP2)
cryo-EM structure = molecular target: the molecule itself
[2] = molecular target: T. maritima encapsulin shell protein (wild type) (T. maritima) (UniProt Q9WZP2); remark: listed apart in the source

Sequence of T. maritima encapsulin shell protein (wild type) (T. maritima) (Q9WZP2 whole entry): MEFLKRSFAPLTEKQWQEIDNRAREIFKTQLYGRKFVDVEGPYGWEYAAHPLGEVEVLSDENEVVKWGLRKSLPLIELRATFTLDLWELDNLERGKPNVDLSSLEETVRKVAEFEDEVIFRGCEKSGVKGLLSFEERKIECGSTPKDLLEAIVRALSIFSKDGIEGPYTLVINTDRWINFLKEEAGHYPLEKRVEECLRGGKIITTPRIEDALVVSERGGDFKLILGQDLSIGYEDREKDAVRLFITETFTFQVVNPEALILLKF
Sequence of T. maritima encapsulin shell protein (wild type) (Q9WZP2 whole entry): as above

Molecule | stoichiometry N (subunits per shell) [1] | stoichiometry N (cryo-EM structure) [subunits] | FLPs per shell (2D class averages) (FLPs per shell) [2]
T. maritima encapsulin shell protein (wild type) (from UniProt Q9WZP2 1-265) (natural protein) | 60 | – | –
T. maritima ferritin-like protein (FLP) cargo (natural protein, UniProt Q9WZP3 1-114, looked up) MADQYHEPVSELTGKDRDFVRALNSLKEEIEAVAWYHQRVVTTKDETVRKILEHNRDEEMEHAAMLLEWLRRNMPGWDEALRTYLFTDKPITEIEEETSGGSENTGGDLGIRKL | – | 10 | 2
